Data taken from patent US20240425575A1 (SOTER BIOPHARMA PTE, published 2024).

T1: recombinant human ANG2 protein corresponding to Lys275-Phe496 of human ANG2 (human, UniProt O15123 275-496)
T1 construct: also called hANG2
T1 sequence: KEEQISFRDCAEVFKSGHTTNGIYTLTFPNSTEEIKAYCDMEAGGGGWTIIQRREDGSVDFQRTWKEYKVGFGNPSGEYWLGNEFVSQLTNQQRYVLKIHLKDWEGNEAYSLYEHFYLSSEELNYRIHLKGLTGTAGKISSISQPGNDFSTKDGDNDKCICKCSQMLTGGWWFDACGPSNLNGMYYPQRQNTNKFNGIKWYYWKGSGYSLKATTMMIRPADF


target: T1, recombinant human ANG2 protein …; experiment: ELISA, hANG2 coated, E. coli supernatant, anti-VHH-HRP
Description: Single colonies of TG1 host strains of the obtained ten strains of heavy-chain single-domain antibodies were selected, inoculated and cultured overnight. On the next day, the overnight strains were transferred, amplified, induced by 0.5 mM IPTG and cultured in a shaker overnight at 37° C. On the next day, centrifugation was performed to collect supernatant for detection.
An ELISA plate was separately coated with an hANG2 protein solution and BSA in […] and placed overnight at 4° C. Supernatant was discarded, and 300 μL blocking solution (PBS containing 3% BSA) was added to each well and blocked for 2 h at 37° C. Supernatant collected after centrifugation was added to wells of the ELISA plate in 200 μL per well and subjected to standing incubation for 2 h at room temperature, and supernatant was discarded. Washing was performed with PBST (PBS contained 0.1% Tween 20) in 200 μL/well three times. Diluted HRP-labeled anti-VHH secondary antibodies (Genscript, A01861) were added in a volume of 100 μL/well and incubated for 1 h at room temperature, wherein the secondary antibodies were used after dilution according to 1:10000 with a diluent of PBS containing 1% BSA. Washing was performed with PBST in 200 μL/well five times. A TMB color developing solution (BD, 55214) was added in 100 μL/well, and color developing was performed for 8 min at 37° C.2M HCl stopping solution was added in 100 μL/well. After the stopping solution was added, values at 450 nm were read with a microplate reader within 30 minutes.

Binder	OD Value Obtained after Binding to hANG2
B4-D3 (VHH, Tested as E. coli TG1 culture supernatant; also called anti-ANG2 heavy-chain single-domain antibody B4-D3) VHH: QLQLVESGGGLVQPGGSLRLSCVASGASGISFSNRGMAWYRQAPGKQRELVAAIDSAGSPAYAGSVKGRFTISRDNAKNTVFLQMNSLKPEDTAVYYCNQPRFNLWGLGTQVTVSS	1.68 OD 450 nm
B1-G8 (VHH, Tested as E. coli TG1 culture supernatant (phagemid pComb3XSS); also called anti-ANG2 heavy-chain single-domain antibody B1-G8) VHH: QVQLVESGGGLVQTGDSLRLSCVAPGISFSNRGMAWYRQAPGKQRELVAAIDSAGSQRYAGSVKDRFTISRDNAKNTVFLQMNSLKPEDTAVYYCNQPRFNLWGQGTQVTVSS	2.02 OD 450 nm
B2-F10 (VHH, Tested as E. coli TG1 culture supernatant (phagemid pComb3XSS); also called anti-ANG2 heavy-chain single-domain antibody B2-F10) VHH: QVQLVESGGGLVQAGGSLRLSCGASGSAVSITLMAWYRQAPGKQRELVAGISNIGDTNYVDSVKDRFTISRINAKNAMYLQMNSLKPEDTAVYYCFAQDWGGHHYWGQGTQVTVSS	2.06 OD 450 nm
B1-G3 (VHH, Tested as E. coli TG1 culture supernatant (phagemid pComb3XSS); also called anti-ANG2 heavy-chain single-domain antibody B1-G3) VHH: EVQVVESGGGLVQPGGSLRLSCVASMPSGISFSNRGMAWYRQAPGKQRELVAAIDSAGSTRYQDSVKGRFTISRDNAKNTVFLQMNSLKPEDTAVYYCNQPAFKAWGQGTQVTVSS	1.57 OD 450 nm
B2-E2 (VHH, Tested as E. coli TG1 culture supernatant (phagemid pComb3XSS); also called anti-ANG2 heavy-chain single-domain antibody B2-E2) VHH: EVQLVESGGGLVQPGESLRLSCVASGFPSGFTFSDYQMYWYRQAPGKERELVAIISNDGLRKTYADSVKGRFTISRDNAKNTMFLQMNSLKPEDTAVYVCNVRRANRDDWGQGTQVTVSS	1.96 OD 450 nm
B3-C11 (VHH, Tested as E. coli TG1 culture supernatant (phagemid pComb3XSS); also called anti-ANG2 heavy-chain single-domain antibody B3-C11) VHH: EVQLVESGGGLVQAGGSLRLSCFVSGSTFSASLMGWYRQAPGKERELVAGISNIGNTVYADSAKGRFTISRDGAKNTVHLQMNALKPEDTAVYYCYATVPRAAWGQGTQVTVSS	1.63 OD 450 nm
B2-A6 (VHH, Tested as E. coli TG1 culture supernatant (phagemid pComb3XSS); also called anti-ANG2 heavy-chain single-domain antibody B2-A6) VHH: QLQLVESGGGLVQAGGSLRLSCFVSGSTFSASLMGWYRQAPGKERELVAGISNIGNTVYADSAKGRFTISRDGAKNTVHLQMNALKPEDTAVYYCYATVPRAAWGQGTQVTVSS	2.39 OD 450 nm
B4-C11 (VHH, Tested as E. coli TG1 culture supernatant (phagemid pComb3XSS); also called anti-ANG2 heavy-chain single-domain antibody B4-C11) VHH: QVQLVESGGGLVQAGGSLRLSCAASGSTFSNVVAGWYRQAPGKQRELVAGISNIGDTRYADSVKGRFTISRDNAKKAVYLQMNSLKPEDTAVYYCYAKYWARDYWGQGTQVTVSS	1.58 OD 450 nm
B1-H9 (VHH, Tested as E. coli TG1 culture supernatant (phagemid pComb3XSS); also called anti-ANG2 heavy-chain single-domain antibody B1-H9) VHH: EVQLVESGGDLVQAGGSLRLSCAASGSTFSSTIAGWYRQAPGKQRELVAGISNIGDTRYADSVKGRFTISRDNAKKTVYLQMNSLKPEDTAVYYCYAKYWARDYWGQGTQVTVSS	1.5 OD 450 nm
B3-H7 (VHH, Tested as E. coli TG1 culture supernatant (phagemid pComb3XSS); also called anti-ANG2 heavy-chain single-domain antibody B3-H7) VHH: EVQVVESGGGLVQAGGSLRLSCAASGSTAINSVAGWYRQAPGKQRELVAGISNIGDTRYADSVKGRFTISRDNAKKTVYLQMNSLKSEDTAVYYCYAKYWARDYWGQGTQVTVSS	1.82 OD 450 nm
